Experimental data reported in publication PMC4860851 (Cell Discovery, 2015).

Key:
[1] = target: Recombinant H1 HA with His Tag from Influenza A/Brisbane/59/2007 H1N1; assay: SPR; settings: read off a plot
[2] = FACS surface staining of BW transfectants; settings: glycan lost; control: WT Ncr1 zeta
[3] = recognition of fusion proteins by eight anti-Ncr1 mAbs; settings: glycan lost; control: WT Ncr1 Ig
[4] = full-length expression in HEK 293T (data not shown); settings: glycan lost; control: WT full-length Ncr1
[5] = FACS, lentiviral expression in IL2-activated human NK cells; settings: glycan lost; control: WT full-length Ncr1
[6] = target: T1, HA Ig (extracellular part of the HA protein of PR8 influenza fused to human IgG1), biotin-conjugated (influenza A/Puerto Rico/8/34 H1N1 (PR8), UniProt P03452 18-528, biotin); assay: far-Western, overlay or dot blot; settings: both partners purified
T1 construct: also called biotinylated HA Ig

Ncr1 Ig fusion protein (extracellular part of mouse Ncr1 fused to human IgG1) (from UniProt Q8C567) T222A; T225A
response ([1]; parent: est. 190): 35 RU
response ([1]; parent: est. 380): 85 RU
response ([1]; parent: est. 560): 150 RU
response ([1]; parent: est. 700): 210 RU

B1: Ncr1: Ncr1 T222A (protein)
parent chain: MLPTLTALLCLGLCLSQRINTEKETLPKPIIWAKPSIMVTNGNSVNIWCQGAQSASEYQLYFEGSFFALERPKPSRSMNKVRFFISQMTSHTAGIYTCFYQSGELWSKSSNPLKLVVTGLYDTPNLWVYPRPEVTLGENVTFFCQLKTATSKFFLLKERGSNHIQNKYGNIQAEFPMGPVTRAHRGTYRCFGSYNDYAWSFPSEPVTLLITGGVENSSLAPTDPTSSLDYWEFDLSTNESGLQKDSAFWDHTTQNLIRIGLACIILITLVWLLTEDWLSKRKDHEEANRLTNWECRRRWRMQHYFEEEQRNAISMMELKATPGAL
expression_or_secretion [2]: no change
stability_or_folding [3]: no change
localisation_or_trafficking [4]: no change

B2: Ncr1: Ncr1 T222 225A (protein)
parent chain: B1 parent chain
expression_or_secretion [2]: no change
expression_or_secretion [5]: no change
stability_or_folding [3]: no change
localisation_or_trafficking [4]: no change

B3: Ncr1: Ncr1 N139 216 238A (protein)
parent chain: B1 parent chain
expression_or_secretion [2]: decreases
expression_or_secretion [5]: abolishes
stability_or_folding [3]: no change
localisation_or_trafficking [4]: decreases

B4: Ncr1: Ncr1 T225A (protein)
parent chain: B1 parent chain
expression_or_secretion [2]: no change
stability_or_folding [3]: no change
localisation_or_trafficking [4]: no change

B5: Ncr1 Ig fusion protein (extracellular part of mouse Ncr1 fused to human IgG1) (Fc fusion, UniProt Q8C567 17-255, looked up)
chain: QRINTEKETLPKPIIWAKPSIMVTNGNSVNIWCQGAQSASEYQLYFEGSFFALERPKPSRSMNKVRFFISQMTSHTAGIYTCFYQSGELWSKSSNPLKLVVTGLYDTPNLWVYPRPEVTLGENVTFFCQLKTATSKFFLLKERGSNHIQNKYGNIQAEFPMGPVTRAHRGTYRCFGSYNDYAWSFPSEPVTLLITGGVENSSLAPTDPTSSLDYWEFDLSTNESGLQKDSAFWDHTTQN
notes: Carries N-linked glycans (N139, N216, N238) and putative O-linked glycans (T222, T225); also called WT Ncr1 Ig; WT Ncr1
binding result [6]: binds
